Some results are limits rather than exact numbers.

human GLP-1 receptor (GLP-1R) (human), sequence (P43220 24-463 limits assumed): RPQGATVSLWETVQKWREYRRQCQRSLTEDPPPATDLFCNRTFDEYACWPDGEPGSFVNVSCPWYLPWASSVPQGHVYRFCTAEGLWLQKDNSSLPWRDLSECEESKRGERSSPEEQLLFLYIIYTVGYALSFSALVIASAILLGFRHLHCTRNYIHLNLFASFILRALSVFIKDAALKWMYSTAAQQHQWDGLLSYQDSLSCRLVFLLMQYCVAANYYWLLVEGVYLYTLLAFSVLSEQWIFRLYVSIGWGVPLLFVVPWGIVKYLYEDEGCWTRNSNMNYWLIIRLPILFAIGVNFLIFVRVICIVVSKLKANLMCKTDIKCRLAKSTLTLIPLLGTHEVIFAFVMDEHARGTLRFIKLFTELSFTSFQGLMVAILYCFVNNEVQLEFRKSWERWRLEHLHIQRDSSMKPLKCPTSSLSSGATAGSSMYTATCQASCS

This assay addresses human GLP-1 receptor (GLP-1R) (human) (UniProt P43220). Briefly: cell-based or functional assay. As to conditions: scale: times higher concentration than the active forms of GLP-1.
In the case of “GIP (gastric inhibitory peptide or glucose-dependent insulinotropic polypeptide) (from UniProt P09681 52-93)”, the reactivity of the kit (aequorin luminescence), concentration relative to the active forms of GLP-1 is over 1e+06.
For the substance “GLP-1 (9-36 amide) (from UniProt P01275 21-180) (peptide)”, the reactivity of the kit (aequorin luminescence), concentration relative to the active forms of GLP-1 was over 1e+06.
The same measure for “GLP-2 (from UniProt P01275 146-178) (peptide)”: over 1e+06; for “precursor GLP-1 (1-37) (from UniProt P01275 21-180) (peptide)”: 10000.

These data come from patent US20130280734A1.
